In paper PMC10042821, “Cryo-EM structure of human eIF5A-DHS complex reveals the molecular basis of hypusination-associated neurodegenerative disorders” (Nature Communications, 2023):

Assays:
[1] = target: the molecule itself; experiment: cryo-EM structure; complex reconstituted from purified eIF5A-1 and DHS K329A (2 mole eIF5A per 1 mole DHS), 200 mM glycine/NaOH pH 9.3, 200 mM NaCl, 1 mM NAD, 1 mM SPD, purified by SEC; 2.8 A
[2] = target: the molecule itself; experiment: mass photometry; Refeyn OneMP, final concentration ~1-5 nM; oligomeric state of DHS variants

| Protein | stoichiometry N [1] | stoichiometry N [2] |
| --- | --- | --- |
| deoxyhypusine synthase K329A, catalytically dead variant, tag-free (enzyme, human, UniProt P49366 1-369, looked up, deoxyhypusine synthase (DHS), Homo sapiens, UniProt P49366, residues 1-369; Tag removal follows the general purification procedure; used for cryo-EM, HDX-MS and crystallography; also called DHS^K329A; source: E. coli, purified (HisTrap, TEV cleavage, reverse HisTrap, SEC); not shown: His6, N-terminal, cleaved) MEGSLEREAPAGALAAVLKHSSTLPPESTQVRGYDFNRGVNYRALLEAFGTTGFQATNFGRAVQQVNAMIEKKLEPLSQDEDQHADLTQSRRPLTSCTIFLGYTSNLISSGIRETIRYLVQHNMVDVLVTTAGGVEEDLIKCLAPTYLGEFSLRGKELRENGINRIGNLLVPNENYCKFEDWLMPILDQMVMEQNTEGVKWTPSKMIARLGKEINNPESVYYWAQKNHIPVFSPALTDGSLGDMIFFHSYKNPGLVLDIVEDLRLINTQAIFAKCTGMIILGGGVVKHHIANANLMRNGADYAVYINTAQEFDGSDSGARPDEAVSWGAIRVDAQPVKVYADASLVFPLLVAETFAQKMDAFMHEKNED | 4 |  |
| deoxyhypusine synthase N173S, patient-derived variant, tag-free (enzyme, human, UniProt P49366 1-369, looked up, deoxyhypusine synthase (DHS), Homo sapiens, UniProt P49366, residues 1-369, pathological variant N173S; Tag removal follows the general purification procedure; also called DHS^N173S; source: E. coli, purified from the soluble fraction (HisTrap, TEV cleavage, reverse HisTrap, SEC); not shown: His6, N-terminal, cleaved) MEGSLEREAPAGALAAVLKHSSTLPPESTQVRGYDFNRGVNYRALLEAFGTTGFQATNFGRAVQQVNAMIEKKLEPLSQDEDQHADLTQSRRPLTSCTIFLGYTSNLISSGIRETIRYLVQHNMVDVLVTTAGGVEEDLIKCLAPTYLGEFSLRGKELRENGINRIGNLLVPSENYCKFEDWLMPILDQMVMEQNTEGVKWTPSKMIARLGKEINNPESVYYWAQKNHIPVFSPALTDGSLGDMIFFHSYKNPGLVLDIVEDLRLINTQAIFAKCTGMIILGGGVVKHHIANANLMRNGADYAVYINTAQEFDGSDSGARPDEAVSWGKIRVDAQPVKVYADASLVFPLLVAETFAQKMDAFMHEKNED |  | 4 |
| deoxyhypusine synthase delY305_I306, patient-derived variant, tag-free (enzyme, human, UniProt P49366 1-369, looked up, deoxyhypusine synthase (DHS), Homo sapiens, UniProt P49366, residues 1-369, pathological variant lacking Y305 and I306; Tag removal follows the general purification procedure; also called DHS^delY305_I306; DHS^del305Y_306I; source: E. coli, purified from the soluble fraction (HisTrap, TEV cleavage, reverse HisTrap, SEC); not shown: His6, N-terminal, cleaved) MEGSLEREAPAGALAAVLKHSSTLPPESTQVRGYDFNRGVNYRALLEAFGTTGFQATNFGRAVQQVNAMIEKKLEPLSQDEDQHADLTQSRRPLTSCTIFLGYTSNLISSGIRETIRYLVQHNMVDVLVTTAGGVEEDLIKCLAPTYLGEFSLRGKELRENGINRIGNLLVPNENYCKFEDWLMPILDQMVMEQNTEGVKWTPSKMIARLGKEINNPESVYYWAQKNHIPVFSPALTDGSLGDMIFFHSYKNPGLVLDIVEDLRLINTQAIFAKCTGMIILGGGVVKHHIANANLMRNGADYAVNTAQEFDGSDSGARPDEAVSWGKIRVDAQPVKVYADASLVFPLLVAETFAQKMDAFMHEKNED |  | 2 |
